These results are taken from PMC4920195, “Non-Smc element 5 (Nse5) of the Smc5/6 complex interacts with SUMO pathway components” (Biology Open, 2016).

What all share (test): two-hybrid; LexA bait and B42 activating domain prey, galactose-induced; liquid culture, quantitative beta-galactosidase activity of permeabilized cells with reporter pSH18034, wild-type cells (JC470)
Test [1] deals with Nse5-ts2-LexA (S. cerevisiae) (UniProt Q03718).
In a further test the target is T1, Nse5-Y111H-LexA (S. cerevisiae, UniProt Q03718 1-556, Y111H).
T1 construct: Nse5 of Saccharomyces cerevisiae, point mutant; also called J-132; source: yeast two-hybrid fusion, galactose-inducible promoter, in S. cerevisiae
T1 sequence (looked up): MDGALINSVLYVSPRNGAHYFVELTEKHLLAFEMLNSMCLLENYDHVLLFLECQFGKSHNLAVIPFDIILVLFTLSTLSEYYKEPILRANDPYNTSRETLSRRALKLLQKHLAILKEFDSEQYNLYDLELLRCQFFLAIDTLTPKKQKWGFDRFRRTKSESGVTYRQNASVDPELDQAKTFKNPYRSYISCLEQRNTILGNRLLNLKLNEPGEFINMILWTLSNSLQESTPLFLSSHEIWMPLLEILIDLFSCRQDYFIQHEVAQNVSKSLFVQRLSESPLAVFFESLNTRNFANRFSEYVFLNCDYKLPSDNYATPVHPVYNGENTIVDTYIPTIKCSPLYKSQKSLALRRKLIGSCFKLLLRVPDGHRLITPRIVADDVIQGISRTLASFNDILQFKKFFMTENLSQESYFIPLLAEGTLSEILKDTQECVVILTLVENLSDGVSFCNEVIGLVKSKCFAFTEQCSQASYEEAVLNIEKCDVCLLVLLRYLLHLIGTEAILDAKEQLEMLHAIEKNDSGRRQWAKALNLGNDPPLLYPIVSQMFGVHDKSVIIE
To be noted: partners not purified.

Another test concerns the target T2, Nse5-Y123H-LexA (S. cerevisiae, UniProt Q03718 1-556, Y123H).
T2 construct: Nse5 of Saccharomyces cerevisiae, point mutant; also called J-131; source: yeast two-hybrid fusion, galactose-inducible promoter, in S. cerevisiae
T2 sequence (looked up): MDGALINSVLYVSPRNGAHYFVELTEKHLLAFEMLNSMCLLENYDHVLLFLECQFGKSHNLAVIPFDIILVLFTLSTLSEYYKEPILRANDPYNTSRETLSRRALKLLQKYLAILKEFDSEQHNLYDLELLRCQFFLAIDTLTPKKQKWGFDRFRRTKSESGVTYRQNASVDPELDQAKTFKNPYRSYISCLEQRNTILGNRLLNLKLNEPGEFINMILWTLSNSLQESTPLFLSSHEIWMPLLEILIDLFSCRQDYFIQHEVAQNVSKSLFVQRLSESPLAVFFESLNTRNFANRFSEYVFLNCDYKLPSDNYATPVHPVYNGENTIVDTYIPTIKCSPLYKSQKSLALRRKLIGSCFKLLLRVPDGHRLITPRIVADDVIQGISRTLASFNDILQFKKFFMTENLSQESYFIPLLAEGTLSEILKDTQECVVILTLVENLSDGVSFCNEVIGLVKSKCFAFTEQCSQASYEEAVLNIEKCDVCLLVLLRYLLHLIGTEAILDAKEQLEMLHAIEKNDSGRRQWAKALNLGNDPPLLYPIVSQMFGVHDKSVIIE
The following applies: partners not purified.

A further test has as its target T3, Nse5-H319Y-LexA (S. cerevisiae, UniProt Q03718 1-556, H319Y).
T3 construct: Nse5 of Saccharomyces cerevisiae, point mutant; also called J-120; source: yeast two-hybrid fusion, galactose-inducible promoter, in S. cerevisiae
T3 sequence (looked up): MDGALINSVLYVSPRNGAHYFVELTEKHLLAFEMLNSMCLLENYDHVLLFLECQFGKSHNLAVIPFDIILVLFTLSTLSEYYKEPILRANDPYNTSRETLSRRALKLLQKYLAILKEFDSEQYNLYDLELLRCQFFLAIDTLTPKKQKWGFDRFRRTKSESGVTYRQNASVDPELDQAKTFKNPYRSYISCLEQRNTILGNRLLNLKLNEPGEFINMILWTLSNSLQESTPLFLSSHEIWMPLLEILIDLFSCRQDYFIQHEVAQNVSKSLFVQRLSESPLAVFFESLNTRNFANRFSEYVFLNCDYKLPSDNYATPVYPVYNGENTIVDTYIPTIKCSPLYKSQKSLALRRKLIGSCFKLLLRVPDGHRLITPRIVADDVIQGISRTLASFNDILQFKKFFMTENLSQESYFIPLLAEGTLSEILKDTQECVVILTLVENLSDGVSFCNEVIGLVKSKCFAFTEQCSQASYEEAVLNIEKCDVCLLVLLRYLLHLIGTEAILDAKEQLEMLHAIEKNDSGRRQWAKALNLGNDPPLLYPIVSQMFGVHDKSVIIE
The following applies: partners not purified.

The target of another test is T4, Nse5-LexA (wild type) (S. cerevisiae, UniProt Q03718 1-556).
T4 construct: Nse5 of Saccharomyces cerevisiae, NSE5 gene cloned into a pEG202-derived bait plasmid; also called Non-Smc element 5; J-038; source: yeast two-hybrid fusion, galactose-inducible promoter, in S. cerevisiae
T4 sequence (looked up): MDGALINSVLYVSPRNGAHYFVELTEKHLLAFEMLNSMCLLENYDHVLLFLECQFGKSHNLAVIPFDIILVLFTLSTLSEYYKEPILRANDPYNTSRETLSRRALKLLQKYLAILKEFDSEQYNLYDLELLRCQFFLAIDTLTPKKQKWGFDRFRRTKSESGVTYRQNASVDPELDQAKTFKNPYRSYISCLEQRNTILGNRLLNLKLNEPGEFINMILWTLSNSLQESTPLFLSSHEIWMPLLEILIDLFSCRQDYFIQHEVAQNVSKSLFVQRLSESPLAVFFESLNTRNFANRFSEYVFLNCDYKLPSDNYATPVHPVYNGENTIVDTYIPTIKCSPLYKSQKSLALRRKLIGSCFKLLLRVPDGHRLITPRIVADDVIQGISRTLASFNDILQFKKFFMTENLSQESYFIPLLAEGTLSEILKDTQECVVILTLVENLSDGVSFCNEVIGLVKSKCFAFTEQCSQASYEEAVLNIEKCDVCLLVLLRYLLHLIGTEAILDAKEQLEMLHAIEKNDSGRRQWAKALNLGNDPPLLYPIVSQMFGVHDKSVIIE
The following applies: partners not purified.

Turning to Nse6-AD (natural protein), the two-hybrid signal as percent of wild-type Nse5 in test [1] worked out at 63%.

B1: Smt3-AD (natural protein, S. cerevisiae, UniProt Q12306 1-101, looked up)
chain: MSDSEVNQEAKPEVKPEVKPETHINLKVSDGSSEIFFKIKKTTPLRRLMEAFAKRQGKEMDSLRFLYDGIRIQADQTPEDLDMEDNDIIEAHREQIGGATY
notes: Smt3 (SUMO) of Saccharomyces cerevisiae, SMT3 cloned into a pJG4-6-derived prey vector; also called SUMO; J-043; source: yeast two-hybrid fusion, galactose-inducible promoter, in S. cerevisiae
For B1, the “two-hybrid signal as percent of wild-type Nse5” value with Nse5-Y111H-LexA was 18%; with Nse5-Y123H-LexA, 75%; with Nse5-H319Y-LexA, 40%.

B2: Ubc9-AD (wild type) (enzyme, S. cerevisiae, UniProt P50623 1-157, looked up)
chain: MSSLCLQRLQEERKKWRKDHPFGFYAKPVKKADGSMDLQKWEAGIPGKEGTNWAGGVYPITVEYPNEYPSKPPKVKFPAGFYHPNVYPSGTICLSILNEDQDWRPAITLKQIVLGVQDLLDSPNPNSPAQEPAWRSFSRNKAEYDKKVLLQAKQYSK
notes: Ubc9 of Saccharomyces cerevisiae, UBC9 cloned into a pJG4-6-derived prey vector; also called E2 conjugating enzyme; J-042; source: yeast two-hybrid fusion, galactose-inducible promoter, in S. cerevisiae
Turning to B2, in the test with Nse5-LexA (wild type), the “two-hybrid signal as fold of the interactions with Siz1 and Siz2” value was about 5 fold.
